Source: patent publication US7393448B2, “Method of binding a compound to a sensor surface” (Applied NanoSystems B.V., priority 2002, dated 2008)

How the values were obtained:
[1] = Immobilization of electroactive molecules on HYDPt-1-modified electrodes (cyclic voltammetry); format: physicochemical; conditions: Q10 bound to GCE covered with HYDPt-1
Procedure: Electrochemical experiments. Voltammetry experiments were done at 20° C. in three-electrode arrangement, with a calomel reference electrode, platinum foil counter electrode and GE, GCE or TMFE as working electrodes. Eco Chemie AUTO-LAB PGSTAT 30 system was used as the potentiostat with an IBM PC and Eco Chemie software. In order to prepare the TMFE, a silver wire or silver disk electrode precleaned in concentrated perchloric acid was touched to a drop of mercury and cathodically polarized in 0.1 M KOH to obtain a shining and uniform layer of mercury, ca. 1 mm thick. The GE and GCE were polished on Buehler polishing papers and paste, and the GE was cleaned in concentrated nitric acid. The electrodes were coated with the self-assembled hydrophobin upon contact with the surface of solutions containing 2 μg of hydrophobin per 1 ml of 10 mM Tris-HCl buffer. The time of the hydrophobin self-assembly and the conditions of Q0, Q10 and diazobenzene adsorption on hydrophobin-coated electrodes are given below.
Hydrophobin as a “molecular glue” for immobilizing molecules on the electrode surface. In the present work, we checked the ability of HYDPt-1 to bind through adsorption to different types of electroactive molecules to electrode surfaces. […]
Curve 1 was recorded after adsorption of the diazobenzene for the same lapse of time, but on the bare GCE. […]

[2] = Immobilization of cholesterol oxidase on hydrophobin-coated glassy carbon electrode, current response to cholesterol; format: biochemical; conditions: GCE, phosphate buffer pH 7 (25 mM), cholesterol added
Source text: Immobilization of cholesterol oxidase on a glassy carbon electrode. […] The coated electrode was submerged in a cholesterol oxidase-containing solution (0.5 U/ml) for two hours and rinsed with water.
To overcome the poor solubility of cholesterol in water, the cholesterol was solubilized in isopropanol with Triton in phosphate buffer (Ropers, M-H. et al., 2001, Phys. Chem. Chem. Phys. 3:240-245). Upon addition of cholesterol, the immobilized cholesterol oxidase catalyzed the reaction and led to formation of hydrogen peroxide. The peroxide produced a small detectable current over the electrode which correlated to the concentration of cholesterol added.

[3] = cited from earlier work
[4] = at 50 μg ml^−1; cited from earlier work

With COC1=C(OC)C(=O)C(C/C=C(\C)CC/C=C(\C)CC/C=C(\C)CC/C=C(\C)CC/C=C(\C)CC/C=C(\C)CC/C=C(\C)CC/C=C(\C)CC/C=C(\C)CCC=C(C)C)=C(C)C1=O [Q10, ubiquinone 50] the “stability of ubiquinone reduction and oxidation signals” value [1] was “remained unchanged for several weeks”.

In the case of cholesterol oxidase, the “enzyme activity upon immobilization on the hydrophobin layer” value [2] is reported as “remaining active”.

B1: SC3: best characterized class I hydrophobin, of Schizophyllum commune (protein, UniProt P16933 25-136, looked up)
Class I hydrophobin SC3: GGHPGTTTPPVTTTVTVTTPPSTTTIAAGGTCTTGSLSCCNQVQSASSSPVTALLGLLGIVLSDLNVLVGISCSPLTVIGVGGSGCSAQTVCCENTQFNGLINIGCTPINIL
In the case of B1, the “water contact angle, hydrophilic side of SC3 membrane” value ([3]; hydrophilic side) is listed as 36 °, the “water contact angle, hydrophobic side of SC3 membrane” value ([3]; hydrophobic side) is listed as 110 ° and the “maximal lowering of the water surface tension (from 72)” value [4] is listed as 24 mJ m^−2.
